# Where two headings read alike, the source gives them in different places.
# T1: CDTb_(D1–D4) monomer (residues 43–876) (Clostridioides difficile, strain not …)
# T1 construct: also called full-length (pro) CDTb; pro-CDTb
# T1 chain: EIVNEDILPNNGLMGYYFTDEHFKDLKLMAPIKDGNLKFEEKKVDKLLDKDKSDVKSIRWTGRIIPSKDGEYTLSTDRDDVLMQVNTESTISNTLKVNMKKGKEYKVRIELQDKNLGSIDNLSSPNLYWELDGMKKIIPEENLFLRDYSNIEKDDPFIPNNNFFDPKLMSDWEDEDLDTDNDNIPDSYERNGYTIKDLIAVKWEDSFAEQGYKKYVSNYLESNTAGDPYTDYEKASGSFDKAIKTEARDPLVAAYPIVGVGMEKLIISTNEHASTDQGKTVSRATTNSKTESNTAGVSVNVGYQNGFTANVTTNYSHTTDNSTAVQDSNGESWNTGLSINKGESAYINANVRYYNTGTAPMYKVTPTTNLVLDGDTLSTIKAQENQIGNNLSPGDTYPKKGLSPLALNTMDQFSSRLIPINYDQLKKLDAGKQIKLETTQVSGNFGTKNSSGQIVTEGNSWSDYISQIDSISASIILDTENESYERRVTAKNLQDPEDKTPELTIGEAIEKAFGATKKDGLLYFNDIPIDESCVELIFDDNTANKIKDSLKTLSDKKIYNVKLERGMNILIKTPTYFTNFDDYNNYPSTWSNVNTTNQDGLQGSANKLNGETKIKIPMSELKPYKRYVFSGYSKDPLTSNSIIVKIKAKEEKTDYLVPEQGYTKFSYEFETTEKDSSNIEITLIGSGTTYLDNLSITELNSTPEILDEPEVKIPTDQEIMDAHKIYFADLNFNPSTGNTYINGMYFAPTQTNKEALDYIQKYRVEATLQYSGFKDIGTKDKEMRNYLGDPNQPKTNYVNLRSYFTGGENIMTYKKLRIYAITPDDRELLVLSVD
# T2: activated monomeric CDTb (75 kDa-activated monomer) (Clostridioides difficile)
# T2 construct: source: recombinant pro-CDTb trypsinized in vitro, purified (SEC)
# T2 chain: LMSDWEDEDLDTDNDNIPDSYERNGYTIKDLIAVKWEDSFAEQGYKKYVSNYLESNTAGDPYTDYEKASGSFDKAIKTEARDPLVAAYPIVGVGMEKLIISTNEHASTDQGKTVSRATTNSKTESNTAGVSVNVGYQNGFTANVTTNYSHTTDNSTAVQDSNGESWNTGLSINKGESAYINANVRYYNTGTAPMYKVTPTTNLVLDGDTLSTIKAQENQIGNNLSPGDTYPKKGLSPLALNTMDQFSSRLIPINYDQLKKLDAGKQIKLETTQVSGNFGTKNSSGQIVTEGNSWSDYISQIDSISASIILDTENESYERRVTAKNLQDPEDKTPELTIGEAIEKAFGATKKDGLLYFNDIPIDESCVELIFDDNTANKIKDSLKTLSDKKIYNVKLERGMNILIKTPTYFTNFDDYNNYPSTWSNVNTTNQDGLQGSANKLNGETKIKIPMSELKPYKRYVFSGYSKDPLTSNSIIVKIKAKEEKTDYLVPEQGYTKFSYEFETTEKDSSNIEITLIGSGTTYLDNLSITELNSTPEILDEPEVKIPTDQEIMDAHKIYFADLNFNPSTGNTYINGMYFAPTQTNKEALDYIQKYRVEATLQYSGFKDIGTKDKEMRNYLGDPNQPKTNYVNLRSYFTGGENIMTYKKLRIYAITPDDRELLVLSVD
# T3: CDTbD3′ (Clostridioides difficile, strain not …)
# T3 chain: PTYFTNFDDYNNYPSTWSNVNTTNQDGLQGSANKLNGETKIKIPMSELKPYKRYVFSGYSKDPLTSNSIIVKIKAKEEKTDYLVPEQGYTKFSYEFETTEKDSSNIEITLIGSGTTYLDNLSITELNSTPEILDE
# T4: heptameric CDTb (Clostridioides difficile, strain not …)
# T4 construct: the ELISA text says only heptameric CDTb; also called CDTb heptamer; CDTb oligomers
# T4 chain: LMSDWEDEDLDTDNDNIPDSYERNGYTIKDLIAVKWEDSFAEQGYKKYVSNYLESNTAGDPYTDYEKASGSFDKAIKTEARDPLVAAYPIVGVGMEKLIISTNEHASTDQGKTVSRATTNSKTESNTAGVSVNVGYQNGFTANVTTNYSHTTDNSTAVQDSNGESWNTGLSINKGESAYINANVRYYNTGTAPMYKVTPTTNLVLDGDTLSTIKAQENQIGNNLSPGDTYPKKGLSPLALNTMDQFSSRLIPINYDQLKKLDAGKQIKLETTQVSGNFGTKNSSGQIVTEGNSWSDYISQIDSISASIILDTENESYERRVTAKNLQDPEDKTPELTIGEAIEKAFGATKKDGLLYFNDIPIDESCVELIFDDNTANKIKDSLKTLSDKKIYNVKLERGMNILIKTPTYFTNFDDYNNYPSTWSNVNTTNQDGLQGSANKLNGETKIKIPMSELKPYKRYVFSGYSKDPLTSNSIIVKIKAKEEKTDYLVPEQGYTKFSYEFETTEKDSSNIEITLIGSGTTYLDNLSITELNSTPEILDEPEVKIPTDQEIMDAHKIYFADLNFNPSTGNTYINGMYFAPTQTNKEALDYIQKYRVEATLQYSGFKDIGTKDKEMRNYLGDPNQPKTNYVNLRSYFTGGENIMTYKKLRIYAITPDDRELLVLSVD
# B1: Nb G2 (VHH)
# VHH: QVQLQESGGGLVQPGGSLTLSCKASGIVFSTHTLAWYRQAPGKHRNVLAVITSAGIPNYDTDLKGRFTISRDNAKNTVYLQMNSLEPEDTAVYYCNARGPHPTVTGTTANYWGQGTQVTVSS
# notes: also called C1G2; source: Expi293F, transfected, purified from supernatant (TALON resin)
# B2: Nb H8 (VHH)
# VHH: QVQLQESGGGLVQPGRSLRLSCEASDFSLNTFGAGWFRQVPGKEREGVSCISPSNSSTYYADSVKGRFTISRDNAKNTIYLQMNSLKPEDTGVYFCAARPITSAQALCTLLVSDSFTSWGQGTQVTVSS
# notes: also called C1H8; source: Expi293F, transfected, purified from supernatant (TALON resin)
# B3: Nb H12 (VHH)
# VHH: QVQLQESGGGLVQPGGSLRLSCAASGDIFSFYTMGWYRQAPGKQRELVATITSPGTTNYADSVKGRFTISRDNAKNMVYLQMTSLKPEDTAVYYCNADRILTTDPQFKYWGQGTQVTVSS
# notes: also called C1H12; source: Expi293F, transfected, purified from supernatant (TALON resin)
# B4: Nb A9 (VHH)
# VHH: QVQLQESGGGLVQPGGSLRLSCTSSTNMLEFTAVAWWRQAPGKQRDLLAVITRAGVPNYADSKGRFAISRDNAKNTVDLLINTLEPDDTAVYTCNARTSGNINYWGQGTQVTVSS
# notes: also called C1A9; source: Expi293F, transfected, purified from supernatant (TALON resin)
# B5: C1G1 (VHH)
# VHH: QVQLQESGGGLVQPGGSLTLSCAASGSIGSGSVMSWYRQAPGKERELVAQESGGRLRSYAKSVMGRFTISRDNSNNTVTLQMNNLKTDDTAIYYCHLVQFSGRYWGHGTQVTGS
# B6: Nb C6 (VHH)
# VHH: QVQLQESGGGLVEPGGSLRLSCVASGIVVASSTMSWYRQAPGKQRELVAQIFSGGNTNYRDSVRGRFTISKDNAKNTAYLQMDNLEPDDTAVYYCYARGFWGQGTQVTVSS
# notes: also called C1C6; source: Expi293F, transfected, purified from supernatant (TALON resin)
# Experiments:
# [1] = biological target: T5, native CDTb protein in cecal contents of mice infected with C. difficile R20291 (Clostridioides difficile R20291, UniProt A0A9R0BM17, strain); test: ELISA; sandwich ELISA on cecal material of mice infected with R20291 (diluted to 10 mg/ml in PBS-T + 2% BSA): native CDTb bound by the coated capture Nb; conditions: one partner purified
# T5 construct: CDTb made by C. difficile R20291 during infection of mice; source: endogenous, C. difficile R20291, in cecal material of infected mice
# [2] = biological target: T1, CDTb_(D1–D4) monomer (residues 43–876); test: SPR; Carterra LSA^XT, SAHC30M chip, 25 °C; biotinylated Nbs captured at eight densities; CDTb constructs injected at 0.3–300 nM (fourfold dilutions) without regeneration; HBS-T (10 mM HEPES pH 7.4, 150 mM NaCl, 0.05% Tween-20) with 0.5 mg/ml BSA; one-to-one kinetics model; conditions: both partners purified
# [3] = biological target: T2, activated monomeric CDTb (75 …); test: ELISA; sandwich ELISA: nonbiotinylated capture Nb coated (200 ng/well), purified CDTb (activated monomer or heptameric sample) in PBS-T + 2% BSA, biotinylated detection Nb (50 ng/well), streptavidin-HRP; room temperature; conditions: both partners purified
# [4] = biological target: T6, CDTb_(D2–D3′) (210–749) (Clostridioides difficile, strain not …, UniProt O32739); test: SPR; […] (10 mM HEPES pH 7.4, 150 mM NaCl, 0.05% Tween-20) with 0.5 mg/ml BSA; […]; conditions: both partners purified
# [5] = biological target: T7, CDTbD4 (760–876) (Clostridioides difficile, strain not …, UniProt O32739); test: SPR; Carterra LSA^XT, SAHC30M chip, 25 °C; biotinylated Nbs captured at eight densities; CDTb constructs injected at 0.3–300 nM (fourfold dilutions) without regeneration; HBS-T (10 mM HEPES pH 7.4, 150 mM NaCl, 0.05% Tween-20) with 0.5 mg/ml BSA; one-to-one kinetics model; conditions: both partners purified
# T7 construct: also called domain 4
# [6] = biological target: T3, CDTbD3′; test: as above; conditions: both partners purified
# [7] = biological target: T6, CDTb_(D2–D3′) (210–749); test: SPR; […] (10 mM HEPES pH 7.4, 150 mM NaCl, 0.05% Tween-20) with 0.5 mg/ml BSA; […]; conditions: both partners purified; remark: listed apart in the source
# [8] = biological target: T3, CDTbD3′; test: SPR; Carterra LSA^XT, SAHC30M chip, 25 °C; biotinylated Nbs captured at eight densities; CDTb constructs injected at 0.3–300 nM (fourfold dilutions) without regeneration; HBS-T (10 mM HEPES pH 7.4, 150 mM NaCl, 0.05% Tween-20) with 0.5 mg/ml BSA; one-to-one kinetics model; conditions: both partners purified
# [9] = biological target: T1, CDTb_(D1–D4) monomer (residues 43–876); test: as above; conditions: both partners purified
# [10] = biological target: T7, CDTbD4 (760–876); test: as above; conditions: both partners purified; remark: listed apart in the source
# [11] = biological target: T5, native CDTb protein in cecal contents …; test: ELISA; sandwich ELISA on cecal material of mice infected with R20291: biotinylated detection Nb on the captured native CDTb; conditions: one partner purified
# [12] = biological target: T2, activated monomeric CDTb (75 …); test: cell-based or functional assay
# [13] = biological target: T4, heptameric CDTb; test: ELISA; sandwich ELISA: nonbiotinylated capture Nb coated (200 ng/well), purified CDTb (activated monomer or heptameric sample) in PBS-T + 2% BSA, biotinylated detection Nb (50 ng/well), streptavidin-HRP; room temperature; conditions: both partners purified
# [14] = biological target: T3, CDTbD3′
# [15] = biological target: T1, CDTb_(D1–D4) monomer (residues 43–876)
binder,measurement,setting,value
B1,binding result,[1],binds
same,Kd,[2],≤ 29 pM
same,koff,[2],≤ 1e-05 s⁻¹
same,kon,[2],380000 M⁻¹ s⁻¹
same,binding result,[3],binds
same,Kd,[4],≤ 22 pM
same,koff,[4],≤ 1e-05 s⁻¹
same,kon,[4],480000 M⁻¹ s⁻¹
same,binding result,[5],no binding
same,Kd,[6],180 pM
same,koff,[6],4.1e-05 s⁻¹
same,kon,[6],240000 M⁻¹ s⁻¹
B2,Kd,[2],1600 pM
same,koff,[2],0.00089 s⁻¹
same,kon,[2],560000 M⁻¹ s⁻¹
same,binding result,[7],no binding
same,binding result,[3],binds
same,binding result,[8],no binding
same,Kd,[9],1900 pM
same,Kd,[10],630 pM
same,koff,[10],0.00083 s⁻¹
same,kon,[10],1.4e+06 M⁻¹ s⁻¹
B3,binding result,[11],binds
same,Kd,[2],50 pM
same,koff,[2],6.7e-05 s⁻¹
same,kon,[2],1.4e+06 M⁻¹ s⁻¹
same,"EC50 of neutralization of CDT-induced rounding of Vero-GFP cells (1 nM CDTa + 7 nM activated monomeric CDTb, Nb 0.6–100 nM, 3 h postintoxication)",[12],~6000 pM
same,binding result,[7],no binding
same,binding result,[8],no binding
same,Kd,[10],42 pM
same,koff,[10],0.00013 s⁻¹
same,kon,[10],3.1e+06 M⁻¹ s⁻¹
B4,binding result,[1],binds
same,Kd,[2],24 pM
same,koff,[2],3.2e-05 s⁻¹
same,kon,[2],1e+06 M⁻¹ s⁻¹
same,binding result,[3],binds
same,binding result,[13],binds
same,Kd,[4],20 pM
same,koff,[4],1.4e-05 s⁻¹
same,kon,[4],710000 M⁻¹ s⁻¹
same,binding result,[5],no binding
same,Kd,[6],≤ 31 pM
same,koff,[6],≤ 1e-05 s⁻¹
same,kon,[6],330000 M⁻¹ s⁻¹
B5,binding result,[14],binds
same,binding result,[15],binds
B6,binding result,[11],binds
same,Kd,[2],18 pM
same,koff,[2],1.4e-05 s⁻¹
same,kon,[2],790000 M⁻¹ s⁻¹
same,binding result,[3],binds
same,Kd,[4],35 pM
same,koff,[4],4.4e-05 s⁻¹
same,kon,[4],1.3e+06 M⁻¹ s⁻¹
same,binding result,[8],no binding
same,binding result,[5],no binding

# — paper PMC12828747, “Nanobodies against Clostridioides difficile CDTb provide a toolkit for potent toxin neutralization and highly sensitive quantitation” (The Journal of Biological Chemistry, 2025)
